According to publication PMC8740826 (Protein Science : A Publication of the Protein Society, 2021):
Where two headings read alike, the source gives them in different places.

B1: β-amylase from sweet potato (enzyme)
chain: APIPGVMPIGNYVSLYVMLPLGVVNADNVFPDKEKVEDELKQVKAGGCDGVMVDVWWGIIEAKGPKQYDWSAYRELFQLVKKCGLKIQAIMSFHQCGGNVGDAVFIPIPQWILQIGDKNPDIFYTNRAGNRNQEYLSLGVDNQRLFQGRTALEMYRDFMESFRDNMADFLKAGDIVDIEVGCGAAGELRYPSYPETQGWVFPGIGEFQCYDKYMVADWKEAVKQAGNADWEMPGKGAGTYNDTPDKTEFFRPNGTYKTDMGKFFLTWYSNKLIIHGDQVLEEANKVFVGLRVNIAAKVSGIHWWYNHVSHAAELTAGFYNVAGRDGYRPIARMLARHHATLNFTCLEMRDSEQPAEAKSAPQELVQQVLSSGWKEYIDVAGENALPRYDATAYNQMLLNVRPNGVNLNGPPKLKMSGLTYLRLSDDLLQTDNFELFKKFVKKMHADLDPSPNAISPAVLERSNSAITIDELMEATKGSRPFPWYDVTDMPVDGSNPFD
B2: glucose isomerase from Streptomyces rubiginosus (enzyme)
chain: not shown

Legend:
SEC-SAXS [1] = target: the molecule itself; experiment: SEC-SAXS
SEC-SAXS [2] = target: the molecule itself; experiment: SEC-SAXS; remark: listed apart in the source

| Protein | stoichiometry N (SEC-SAXS [1]) | stoichiometry N (SEC-SAXS [2]) |
| --- | --- | --- |
| B1 | 4 | – |
| B2 | – | 4 |
